# Experimental data from IntAct's records for PubMed 17555716.
# B1: 26S proteasome regulatory subunit 6B homolog (Saccharomyces cerevisiae), P33298 (parent)
# chain: MEELGIVTPVEKAVEEKPAVKSYASLLAQLNGTVNNNSALSNVNSDIYFKLKKLEKEYELLTLQEDYIKDEQRHLKRELKRAQEEVKRIQSVPLVIGQFLEPIDQNTGIVSSTTGMSYVVRILSTLDRELLKPSMSVALHRHSNALVDILPPDSDSSISVMGENEKPDVTYADVGGLDMQKQEIREAVELPLVQADLYEQIGIDPPRGVLLYGPPGTGKTMLVKAVANSTKAAFIRVNGSEFVHKYLGEGPRMVRDVFRLARENAPSIIFIDEVDSIATKRFDAQTGSDREVQRILIELLTQMDGFDQSTNVKVIMATNRADTLDPALLRPGRLDRKIEFPSLRDRRERRLIFGTIASKMSLAPEADLDSLIIRNDSLSGAVIAAIMQEAGLRAVRKNRYVILQSDLEEAYATQVKTDNTVDKFDFYK
# partner: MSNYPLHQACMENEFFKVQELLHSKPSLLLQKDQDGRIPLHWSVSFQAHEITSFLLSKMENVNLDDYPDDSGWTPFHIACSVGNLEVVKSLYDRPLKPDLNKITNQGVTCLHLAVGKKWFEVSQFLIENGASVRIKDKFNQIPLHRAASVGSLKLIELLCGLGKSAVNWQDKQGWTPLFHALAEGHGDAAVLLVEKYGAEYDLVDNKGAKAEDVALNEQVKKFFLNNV
# Variants of: B1
# Conditions: with psd10_yeast NAS6, P50086
row,effect of a mutation on the interaction,Variant
1,disrupting interaction strength,MEELGIVTPVEKAVEEKPAVKSYASLLAQLNGTVNNNSALSNVNSDIYFKLKKLEKEYELLTLQEDYIKDEQRHLKRELKRAQEEVKRIQSVPLVIGQFLEPIDQNTGIVSSTTGMSYVVRILSTLDRELLKPSMSVALHRHSNALVDILPPDSDSSISVMGENEKPDVTYADVGGLDMQKQEIREAVELPLVQADLYEQIGIDPPRGVLLYGPPGTGKTMLVKAVANSTKAAFIRVNGSEFVHKYLGEGPRMVRDVFRLARENAPSIIFIDEVDSIATKRFDAQTGSDREVQRILIELLTQMDGFDQSTNVKVIMATNRADTLDPALLRPGRLDRKIEFPSLRDRRERRLIFGTIASKMSLAPAAALDSLIIRNDSLSGAVIAAIMQEAGLRAVRKNRYVILQSDLEEAYATQVKTDNTVDKFDFYK [E365A;D367A]
2,disrupting interaction strength,MEELGIVTPVEKAVEEKPAVKSYASLLAQLNGTVNNNSALSNVNSDIYFKLKKLEKEYELLTLQEDYIKDEQRHLKRELKRAQEEVKRIQSVPLVIGQFLEPIDQNTGIVSSTTGMSYVVRILSTLDRELLKPSMSVALHRHSNALVDILPPDSDSSISVMGENEKPDVTYADVGGLDMQKQEIREAVELPLVQADLYEQIGIDPPRGVLLYGPPGTGKTMLVKAVANSTKAAFIRVNGSEFVHKYLGEGPRMVRDVFRLARENAPSIIFIDEVDSIATKRFDAQTGSDREVQRILIELLTQMDGFDQSTNVKVIMATNRADTLDPALLRPGRLDRKIEFPSLRDRRERRLIFGTIASKMSLAPEADLDSLIIRNDSLSGAVIAAIMQEAGLRAVRANAYVILQSDLEEAYATQVKTDNTVDKFDFYK [K397A;R399A]
